Experimental data reported in IntAct's records for PubMed 31515488.

B1: Four and a half LIM domains protein 5 (Homo sapiens), Q5TD97 (parent)
chain: MTTAHFYCQYCTASLLGKKYVLKDDSPYCVTCYDRVFSNYCEECKKPIESDSKDLCYKDRHWHEGCFKCTKCNHSLVEKPFAAKDERLLCTECYSNECSSKCFHCKRTIMPGSRKMEFKGNYWHETCFVCENCRQPIGTKPLISKESGNYCVPCFEKEFAHYCNFCKKVITSGGITFCDQLWHKECFLCSGCRKDLCEEQFMSRDDYPFCVDCYNHLYANKCVACSKPISGLTGAKFICFQDSQWHSECFNCGKCSVSLVGKGFLTQNKEIFCQKCGSGMDTDI
partner: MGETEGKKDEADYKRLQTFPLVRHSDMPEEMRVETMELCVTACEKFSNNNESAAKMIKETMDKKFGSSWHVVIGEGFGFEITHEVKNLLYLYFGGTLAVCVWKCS
B2: SKA complex subunit 1 (Homo sapiens), Q96BD8 (parent)
chain: MASSDLEQLCSHVNEKIGNIKKTLSLRNCGQEPTLKTVLNKIGDEIIVINELLNKLELEIQYQEQTNNSLKELCESLEEDYKDIEHLKENVPSHLPQVTVTQSCVKGSDLDPEEPIKVEEPEPVKKPPKEQRSIKEMPFITCDEFNGVPSYMKSRLTYNQINDVIKEINKAVISKYKILHQPKKSMNSVTRNLYHRFIDEETKDTKGRYFIVEADIKEFTTLKADKKFHVLLNILRHCRRLSEVRGGGLTRYVIT
partner: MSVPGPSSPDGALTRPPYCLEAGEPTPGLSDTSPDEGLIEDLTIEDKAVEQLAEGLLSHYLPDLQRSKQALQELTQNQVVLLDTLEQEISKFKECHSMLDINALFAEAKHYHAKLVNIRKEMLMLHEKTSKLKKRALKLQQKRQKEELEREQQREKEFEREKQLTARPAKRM
B3: Phosphatidylserine lipase ABHD16A (Homo sapiens), O95870 (parent)
chain: MAKLLSCVLGPRLYKIYRERDSERAPASVPETPTAVTAPHSSSWDTYYQPRALEKHADSILALASVFWSISYYSSPFAFFYLYRKGYLSLSKVVPFSHYAGTLLLLLAGVACLRGIGRWTNPQYRQFITILEATHRNQSSENKRQLANYNFDFRSWPVDFHWEEPSSRKESRGGPSRRGVALLRPEPLHRGTADTLLNRVKKLPCQITSYLVAHTLGRRMLYPGSVYLLQKALMPVLLQGQARLVEECNGRRAKLLACDGNEIDTMFVDRRGTAEPQGQKLVICCEGNAGFYEVGCVSTPLEAGYSVLGWNHPGFAGSTGVPFPQNEANAMDVVVQFAIHRLGFQPQDIIIYAWSIGGFTATWAAMSYPDVSAMILDASFDDLVPLALKVMPDSWRGLVTRTVRQHLNLNNAEQLCRYQGPVLLIRRTKDEIITTTVPEDIMSNRGNDLLLKLLQHRYPRVMAEEGLRVVRQWLEASSQLEEASIYSRWEVEEDWCLSVLRSYQAEHGPDFPWSVGEDMSADGRRQLALFLARKHLHNFEATHCTPLPAQNFQMPWHL
partner: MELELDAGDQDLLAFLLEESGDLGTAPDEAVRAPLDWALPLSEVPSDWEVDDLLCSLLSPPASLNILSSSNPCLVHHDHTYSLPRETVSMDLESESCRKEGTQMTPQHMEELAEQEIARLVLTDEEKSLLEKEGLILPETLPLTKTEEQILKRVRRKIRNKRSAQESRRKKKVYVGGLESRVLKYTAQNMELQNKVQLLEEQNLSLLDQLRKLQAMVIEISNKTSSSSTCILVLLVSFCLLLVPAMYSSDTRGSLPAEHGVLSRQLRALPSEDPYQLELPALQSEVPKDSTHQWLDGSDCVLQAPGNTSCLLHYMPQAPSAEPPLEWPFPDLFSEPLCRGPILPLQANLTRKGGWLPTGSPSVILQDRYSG
B4: Ubiquitin-conjugating enzyme E2 E3 (Homo sapiens), Q969T4 (parent)
chain: MSSDRQRSDDESPSTSSGSSDADQRDPAAPEPEEQEERKPSATQQKKNTKLSSKTTAKLSTSAKRIQKELAEITLDPPPNCSAGPKGDNIYEWRSTILGPPGSVYEGGVFFLDITFSSDYPFKPPKVTFRTRIYHCNINSQGVICLDILKDNWSPALTISKVLLSICSLLTDCNPADPLVGSIATQYLTNRAEHDRIARQWTKRYAT
B5: Tripartite motif-containing protein 59 (Homo sapiens), Q8IWR1 (parent)
chain: MHNFEEELTCPICYSIFEDPRVLPCSHTFCRNCLENILQASGNFYIWRPLRIPLKCPNCRSITEIAPTGIESLPVNFALRAIIEKYQQEDHPDIVTCPEHYRQPLNVYCLLDKKLVCGHCLTIGQHHGHPIDDLQSAYLKEKDTPQKLLEQLTDTHWTDLTHLIEKLKEQKSHSEKMIQGDKEAVLQYFKELNDTLEQKKKSFLTALCDVGNLINQEYTPQIERMKEIREQQLELMALTISLQEESPLKFLEKVDDVRQHVQILKQRPLPEVQPVEIYPRVSKILKEEWSRTEIGQIKNVLIPKMKISPKRMSCSWPGKDEKEVEFLKILNIVVVTLISVILMSILFFNQHIITFLSEITLIWFSEASLSVYQSLSNSLHKVKNILCHIFYLLKEFVWKIVSH
partner: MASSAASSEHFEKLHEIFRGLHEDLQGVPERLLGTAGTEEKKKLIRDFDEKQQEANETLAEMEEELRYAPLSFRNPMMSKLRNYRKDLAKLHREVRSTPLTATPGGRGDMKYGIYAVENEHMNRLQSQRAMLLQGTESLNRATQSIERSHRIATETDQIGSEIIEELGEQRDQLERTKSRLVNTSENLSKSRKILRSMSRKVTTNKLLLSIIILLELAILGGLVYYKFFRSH
B6: E3 ubiquitin-protein ligase MARCHF5 (Homo sapiens), Q9NX47 (parent)
chain: MPDQALQQMLDRSCWVCFATDEDDRTAEWVRPCRCRGSTKWVHQACLQRWVDEKQRGNSTARVACPQCNAEYLIVFPKLGPVVYVLDLADRLISKACPFAAAGIMVGSIYWTAVTYGAVTVMQVVGHKEGLDVMERADPLFLLIGLPTIPVMLILGKMIRWEDYVLRLWRKYSNKLQILNSIFPGIGCPVPRIPAEANPLADHVSATRILCGALVFPTIATIVGKLMFSSVNSNLQRTILGGIAFVAIKGAFKVYFKQQQYLRQAHRKILNYPEQEEA
partner: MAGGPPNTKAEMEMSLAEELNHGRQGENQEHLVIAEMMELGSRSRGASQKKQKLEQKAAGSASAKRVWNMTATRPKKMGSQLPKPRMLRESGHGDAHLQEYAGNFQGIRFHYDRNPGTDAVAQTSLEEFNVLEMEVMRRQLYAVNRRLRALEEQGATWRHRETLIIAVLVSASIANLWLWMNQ
B7: Zinc finger protein Aiolos (Homo sapiens), Q9UKT9 (parent)
chain: MEDIQTNAELKSTQEQSVPAESAAVLNDYSLTKSHEMENVDSGEGPANEDEDIGDDSMKVKDEYSERDENVLKSEPMGNAEEPEIPYSYSREYNEYENIKLERHVVSFDSSRPTSGKMNCDVCGLSCISFNVLMVHKRSHTGERPFQCNQCGASFTQKGNLLRHIKLHTGEKPFKCHLCNYACQRRDALTGHLRTHSVEKPYKCEFCGRSYKQRSSLEEHKERCRTFLQSTDPGDTASAEARHIKAEMGSERALVLDRLASNVAKRKSSMPQKFIGEKRHCFDVNYNSSYMYEKESELIQTRMMDQAINNAISYLGAEALRPLVQTPPAPTSEMVPVISSMYPIALTRAEMSNGAPQELEKKSIHLPEKSVPSERGLSPNNSGHDSTDTDSNHEERQNHIYQQNHMVLSRARNGMPLLKEVPRSYELLKPPPICPRDSVKVINKEGEVMDVYRCDHCRVLFLDYVMFTIHMGCHGFRDPFECNMCGYRSHDRYEFSSHIARGEHRALLK
partner: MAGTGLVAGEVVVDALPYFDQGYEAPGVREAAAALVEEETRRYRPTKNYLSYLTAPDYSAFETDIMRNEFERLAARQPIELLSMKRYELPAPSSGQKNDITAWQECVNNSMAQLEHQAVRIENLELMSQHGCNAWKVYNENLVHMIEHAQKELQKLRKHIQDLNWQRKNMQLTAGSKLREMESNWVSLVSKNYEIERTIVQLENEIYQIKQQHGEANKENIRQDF

Variants of: B1
Details: with dnal4_human DNAL4, O96015
For R204G, the “effect of a mutation on the interaction” value was “with no effect”.
For R60W, the “effect of a mutation on the interaction” value was “with no effect”.
For D24Y, the “effect of a mutation on the interaction” value was “with no effect”.
With M202L the “effect of a mutation on the interaction” value was “with no effect”.

Variants of: B2
Details: with bl1s6_human BLOC1S6, Q9UL45
For H86R, the “effect of a mutation on the interaction” value was “with no effect”.
V230M was tested, and the “effect of a mutation on the interaction” value was “with no effect”.

Variants of: B3
Details: with creb3_human CREB3, O43889
R184L was tested, and the “effect of a mutation on the interaction” value was “with no effect”.

Variants of: B4
Details: with rnf5_human RNF5, Q99942
Sequence of rnf5_human RNF5, Q99942 (Q99942 whole entry): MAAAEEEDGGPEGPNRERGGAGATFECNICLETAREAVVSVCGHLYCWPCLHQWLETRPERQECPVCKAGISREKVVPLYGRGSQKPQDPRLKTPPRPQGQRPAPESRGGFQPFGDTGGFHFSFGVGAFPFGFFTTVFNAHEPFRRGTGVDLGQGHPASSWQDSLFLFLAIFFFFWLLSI
S117T was tested, and the “effect of a mutation on the interaction” value was “with no effect”.

Variants of: B5
Details: with vti1b_human VTI1B
For I277V, the “effect of a mutation on the interaction” value was “with no effect”.

Variants of: B6
Details: with fate1_human FATE1, Q969F0
With D202N the “effect of a mutation on the interaction” value was “with no effect”.

Variants of: B7
Details: with spf27_human BCAS2, O75934
With N119D the “effect of a mutation on the interaction” value was “with no effect”.
